Results reported in PMC5321513 (Structure (London, England : 1993), 2017).
Positions count from the first letter of the chain named.

B1: 14-3-3σ WT (1-231) (domain or fragment, human)
chain: GAMGSMERASLIQKAKLAEQAERYEDMAAFMKGAVEKGEELSCEERNLLSVAYKNVVGGQRAAWRVLSSIEQKSNEEGSEEKGPEVREYREKVETELQGVCDTVLGLLDSHLIKEAGDAESRVFYLKMKGDYYRYLAEVATGDDKKRIIDSARSAYQEAMDISKKEMPPTNPIRLGLALNFSVFHYEIANSPEEAISLAKTTFDEAMADLHTLSEDSYKDSTLIMQLLRDNLTLWT
B2: HSPB6 ACD (residues 72 to 149) (domain or fragment, human, UniProt O14558 72-149, looked up)
chain: GHFSVLLDVKHFSPEEIAVKVVGEHVEVHARHEERPDEHGFVAREFHRRYRLPPGVDPAAVTSALSPEGVLSIQAAPA
B3: 14-3-3σ Clu3 (1-231) (domain or fragment, human)
chain: GPHMERASLIQKAKLAEQAERYEDMAAFMKGAVEKGEELSCEERNLLSVAYKNVVGGQRAAWRVLSSIEQKSNEEGSAAAGPEVREYREKVETELQGVCDTVLGLLDSHLIKEAGDAESRVFYLKMKGDYYRYLAEVATGDDKKRIIDSARSAYQEAMDISKKEMPPTNPIRLGLALNFSVFHYEIANSPEEAISLAKTTFDEAMADLHTLSEDSYKDSTLIMQLLRDNLTLWT
B4: 14-3-3σ Clu1 (1-231) (domain or fragment, human)
chain: B3 chain with A78E, A79E, A80K, K162A, K163A, E164A

Target: the molecule itself
Assay: crystal structure

Binding result, binds:
B1
B2
B3
B4
